Measurements from publication PMC2672303, “Dosage Effects of Cohesin Regulatory Factor PDS5 on Mammalian Development: Implications for Cohesinopathies”.

Target: T1, C-PDS5B-His wild type (C-terminal PDS5B, two AT-hooks) (Homo sapiens, UniProt Q9NTI5 1134-1446)
T1 sequence: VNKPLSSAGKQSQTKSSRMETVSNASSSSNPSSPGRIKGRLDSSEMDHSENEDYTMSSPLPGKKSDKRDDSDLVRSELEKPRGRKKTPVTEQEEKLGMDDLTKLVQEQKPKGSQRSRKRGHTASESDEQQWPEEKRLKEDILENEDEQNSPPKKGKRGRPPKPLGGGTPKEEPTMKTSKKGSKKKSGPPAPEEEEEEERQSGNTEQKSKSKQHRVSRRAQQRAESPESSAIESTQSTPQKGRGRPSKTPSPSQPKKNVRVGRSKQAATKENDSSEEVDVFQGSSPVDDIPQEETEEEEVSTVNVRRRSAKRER
Assay: EMSA; 5-40 ng protein; EMSA: 20 ng protein (5-40 ng in Fig. 7E) with 2.25 pmol 32P probe, 25 C, 5 min, 6% polyacrylamide gel; protein dialyzed in 50 mM Tris pH 7.5, 0.5 mM EDTA, 100 mM NaCl, 10% glycerol, 1 mM DTT; binding buffer as in cited work
Conditions: protein: recombinant; tags: N-terminal HA; C-terminal 6xHis; label: 32P; blunt

B1: T5-8-T5 probe (dsDNA)
DNA 1: GGACTCCAGGTCCAGGACCGCTTTTTGCGCGCGCTTTTTGCGGGAGGTCCAGCTGTCCACCTCC
DNA 2: GGAGGTGGACAGCTGGACCTCCCGCAAAAAGCGCGCGCAAAAAGCGGTCCTGGACCTGGAGTCC
B1: binds.
